Assay results from patent US20200345810A1, “USE OF ALPHA-1-MICROGLOBULIN FOR PROTECTION OF BONE MARROW CELLS” (GUARD THERAPEUTICS INTERNATIONAL AB, priority 2017, published 2020).
Numbering of substitutions follows the chain as printed. Names and notes keep the numbering of the source.

Assays:
[1] = tested on: Rps19 deficient erythroid precursors; assay: Drug screen: proliferation of Kit+ bone marrow cells in erythroid culture (CellTiter Glo); assay type: cell-based, mice; conditions: 5 days expansion; A1M at 5 and 10 μM; FIG. 4B
Method: (§1) FIG. 4: A1M treatment improves expansion of erythroid cells from a murine DBA model and patients. CD117 (Kit)+ bone marrow cells were treated with Doxycycline to induce Rps19 deficiency. Twenty four hours after Doxycycline administration, cells were treated with drugs interfering with iron or heme availability. The ATP measuring platform CellTiter Glo was used to monitor viable cells after 5 days of expansion. In A) a schematic picture of the drug screen is shown. B) Proliferation of bone marrow cells (as described in A) from Rps19 inducible mice treated with respective drug compounds interfering with iron or heme availability is presented. Shown is also a schematic picture of drug activity where A1M is shown to have intracellular effects by reducing unbound heme in erythroblast. The cells were cultured in erythroid promoting media for 5 days. Kruskal-Wallis non parametric test with Dunn's multiple comparisons test was used for statistical analysis, and genotypes were compared to respective control, separately. p-values: *≤005, **≤001, ***≤0001, ****≤00001. C) Concentration of free unbound intracellular heme in Kit+ bone marrow cells from the Rps19 deficient mouse expanded in erythroid culture with A1M or vehicle for 72 hours. Mann Whitney non parametric analysis was employed for statistical analysis within each genotype. D) Expansion of CD34+ erythroid precursors from peripheral blood of DBA patients with mutations in RPS19, RPL35a and RPS26, or healthy controls treated with A1M or vehicle in erythroid promoting media for 7 days. […]
(§2) The drugs administered 24 hours after Doxycycline administration were A1M (supplied by A1M Pharma AB, Sweden), N-methyl mesoporphyrin IX (AH Diagnostics, Denmark), Succinylacetone, hemin, Deferoxamine, Ferrostatin and N-acetyl-L-cystein and hemopexin (Sigma-Aldrich). Cell expansion 5 days after drug administration was measured using CellTiter Glo (Promega, US), which measures the number of viable and metabolically active cells in culture based on quantitation of the ATP present. Plates were read on Victor 3 Multilabel counter (PerkinElmer, US).

[2] = tested on: bone marrow cells; assay: Bone marrow flow cytometry after 177Lu-DOTATATE exposure (radiation-induced damage); assay type: in vivo, BALB/c mice; conditions: 4 days
Method: (§3) Female BALB/c mice (Taconic, Denmark) at the age of 12 weeks were used in this study. Two groups (n=5-10) received a subcutaneous administration of either A1M (20 mg/kg) or vehicle buffer (10 mM Na-phosphate pH 7.4+0.15 M NaCl+12 mM histidine) followed by an intravenous (i.v.) injection, 30 minutes later, of ^177Lu-DOTATATE (150 MBq). A control group (n=5-10) received a subcutaneous administration of vehicle, followed by, 30 minutes after, an i.v. injections of NaCl. Animals were sacrificed 4 days post-injections.
After 4 days (post ^177Lu-DOTATATE administration), blood, for peripheral blood cell and reticulocyte count, was sampled from vena saphena, on non-anesthetized animals, in EDTA pre-coated vials (Microvette CB 300 K2E, Sarstedt, Nümbrecht, Germany) and placed on a rocking mixer in room temperature followed by analysis as described below. […]
Bone marrow cells were isolated by crushing femur in PBS containing 2% FCS (GIBCO, Waltham, Mass., USA) and passing them though a 70 um cell strainer to obtain single cell suspension. […] All experiments were performed on LSRFortessa (BD Biosciences) flow cytometry and analyzed with FlowJo software.
Bone marrow cellularity was counted from the single cell suspension using hematology analyzer SYSMEX KX-21 N.

[3] = tested on: Rps19 deficient erythroid cells; assay: Free unbound intracellular heme in Kit+ bone marrow cells expanded in erythroid culture; assay type: cell-based, mouse; conditions: erythroid culture with A1M or vehicle for 72 hours; FIG. 4C
Method: as §1, with “genotype.” for “genotype. D) Expansion of CD34+ erythroid precursors from peripheral blood of DBA patients with mutations in RPS19, RPL35a and RPS26, or healthy controls treated with A1M or vehicle in erythroid promoting media for 7 days.”

[4] = tested on: cells from healthy subjects; assay: Expansion of CD34+ erythroid precursors from peripheral blood (manual cell count); assay type: cell-based, human; conditions: 5 μM A1M every 2-3 days, 7-8 days; FIG. 4D
Method: as §1, with “genotype.” for “genotype. D) Expansion of CD34+ erythroid precursors from peripheral blood of DBA patients with mutations in RPS19, RPL35a and RPS26, or healthy controls treated with A1M or vehicle in erythroid promoting media for 7 days.”

[5] = tested on: erythroid precursors from DBA patients; assay: as above; assay type: cell-based, human; conditions: 5 μM A1M every 2-3 days, 7-8 days; mutations in RPS19, RPS26, RPL35a; FIG. 4D
Method: as §1, with “genotype.” for “genotype. D) Expansion of CD34+ erythroid precursors from peripheral blood of DBA patients with mutations in RPS19, RPL35a and RPS26, or healthy controls treated with A1M or vehicle in erythroid promoting media for 7 days.”

[6] = tested on: peripheral blood cells; assay: Peripheral blood reticulocyte count after 177Lu-DOTATATE exposure; assay type: in vivo, BALB/c mice; conditions: A1M 20 mg/kg subcutaneous 30 minutes prior to 150 MBq 177Lu-DOTATATE i.v.; 4 days; FIG. 2B
Method: as §3
After 4 days (post ^177Lu-DOTATATE administration), blood, for peripheral blood cell and reticulocyte count, was sampled from vena saphena, on non-anesthetized animals, in EDTA pre-coated vials (Microvette CB 300 K2E, Sarstedt, Nümbrecht, Germany) and placed on a rocking mixer in room temperature followed by analysis as described below. Thereafter the animals were anaesthetized using isoflurane, sacrificed by cervical dislocation and femur (left and right) sampled and placed in PBS, pH 7.4 in a 24 well plate standing on wet ice.
Following collection of peripheral blood SYSMEX KX-21N hematology analyzer was used for determining Blood parameters. Reticulocyte count was determined using LSR Fortessa or Canto II flow cytometry using Retic-Count (BD Biosciences).

[7] = tested on: WT cells; assay: Drug screen: proliferation of Kit+ bone marrow cells in erythroid culture (CellTiter Glo); assay type: cell-based, mice; conditions: 5 days expansion; FIG. 4B
Method: as §1, §2

[8] = general background on A1M secreted into the blood stream; cited from earlier work
[9] = Solubility/stability and function of A1M mutation variants; assay type: physicochemical; conditions: mutated A1M variants

B1: hemopexin: mainly extracellular heme scavenger (Sigma-Aldrich) (protein, UniProt P02790 24-462, looked up)
Hemopexin: TPLPPTSAHGNVAEGETKPDPDVTERCSDGWSFDATTLDDNGTMLFFKGEFVWKSHKWDRELISERWKNFPSPVDAAFRQGHNSVFLIKGDKVWVYPPEKKEKGYPKLLQDEFPGIPSPLDAAVECHRGECQAEGVLFFQGDREWFWDLATGTMKERSWPAVGNCSSALRWLGRYYCFQGNQFLRFDPVRGEVPPRYPRDVRDYFMPCPGRGHGHRNGTGHGNSTHHGPEYMRCSPHLVLSALTSDNHGATYAFSGTHYWRLDTSRDGWHSWPIAHQWPQGPSAVDAAFSWEEKLYLVQGTQVYVFLTKGGYTLVSGYPKRLEKEVGTPHGIILDSVDAAFICPGSSRLHIMAGRRLWWLDLKSGAQATWTELPWPHEKVDGALCMEKSLGPNSCSANGPGLYLIHGPNLYCYSDVEKLNAAKALPQPQNVTSLLGCTH
With B1 the “proliferation of Rps19 deficient erythroid precursors” value [1] was “no effect”.

B2: alpha-1-microglobulin (protein, listed as Homo sapiens)
chain: GPVPTPPDNIQVQENFDISRIYGKWYNLAIGSTCPWLKKIMDRMTVSTLVLGEGATEAEISMTSTHWRKGVCEETSGAYEKTDTDGKFLYHKSKWDITMESYVVHTNYDEYAIFLTKKFSRHHGPTITAKLYGRAPQLRETLLQDFRVVAQGVGIPEDSIFTMADRGECVPGEQEPEPILIPR
modifications: Wildtype human A1M, no mutations
notes: Recombinant human A1M, variant RMC-035 corresponding to A1M (R66H+N17,96D), supplied by A1M Pharma AB
For B2, the “percentage of viable reticulocytes in bone marrow” value ([2]; A1M 20 mg/kg subcutaneous 30 minutes prior to 150 MBq 177Lu-DOTATATE i.v., FIG. 2A) was “completely preserved reticulocyte population at the level of the non-radiation exposed control animals”, the “protection of the proerythroblast population” value ([2]; A1M 20 mg/kg subcutaneous 30 minutes prior to 150 MBq 177Lu-DOTATATE, FIG. 3) was “displayed protection of the proerythroblast population” and the “level of unbound intracellular heme” value [3] was “significantly reduce the level of unbound intracellular heme back to WT levels”. For the same molecule, the “expansion of cells from healthy subjects” value [4] was “no such trend was observed”, the “expansion of erythroid precursors from three DBA patients” value [5] was “improved expansion” and the “percentage of viable reticulocytes in peripheral blood” value [6] was “completely preserved reticulocyte population at the level of the non-radiation exposed control animals”. The “proliferation of Rps19 deficient erythroid precursors” value [1] was “increased proliferation”, the “proliferation of WT cells” value [7] was “No effect on proliferation” and the “T½ of transport across the vessel walls to the extravascular compartment” value [8] was 2 to 3 min.

B3: (M41K+R66H): A1M with point mutations M41K and R66H (protein, UniProt P02760 20-203, looked up, variant M41K R66H)
Alpha-1-microglobulin: GPVPTPPDNIQVQENFNISRIYGKWYNLAIGSTCPWLKKIKDRMTVSTLVLGEGATEAEISMTSTHWRKGVCEETSGAYEKTDTDGKFLYHKSKWNITMESYVVHTNYDEYAIFLTKKFSRHHGPTITAKLYGRAPQLRETLLQDFRVVAQGVGIPEDSIFTMADRGECVPGEQEPEPILIPRV
modifications: Alpha-1-microglobulin
In the case of B3, the “solubility and/or stability and function” value [9] is reported as “increased solubility and/or stability with maintained function”.

B4: (R66H+N17,96D): A1M with point mutations R66H and N17,96D; RMC-035 corresponds to this variant (protein, UniProt P02760 20-203, looked up, variant R66H N17D N96D)
Alpha-1-microglobulin: B3 Alpha-1-microglobulin with N17D, K41M, N96D
modifications: Alpha-1-microglobulin RMC-035
In the case of B4, the “solubility and/or stability and function” value [9] is reported as “increased solubility and/or stability with maintained function”.

B5: (M41K+N17,96D): A1M with point mutations M41K and N17,96D (protein, UniProt P02760 20-203, looked up, variant M41K N17D N96D)
Alpha-1-microglobulin: B3 Alpha-1-microglobulin with N17D, H66R, N96D
modifications: Alpha-1-microglobulin
notes: A1M with point mutations M41K and N17,96D
With B5 the “solubility and/or stability and function” value [9] was “increased solubility and/or stability with maintained function”.

B6: (M41K+R66H+N17,96D): A1M with point mutations M41K, R66H and N17,96D (protein, UniProt P02760 20-203, looked up, variant M41K R66H N17D N96D)
Alpha-1-microglobulin: B3 Alpha-1-microglobulin with N17D, N96D
modifications: Alpha-1-microglobulin
notes: A1M with point mutations M41K, R66H and N17,96D
In the case of B6, the “solubility and/or stability and function” value [9] is reported as “increased solubility and/or stability with maintained function”.
